Assay results reported in US20020098523A1.

Tests used:
[1] = molecular target: Human eotaxin (human) (UniProt P51671); test: Flash Plate scintillation competition: unlabelled CAT-212 against coated CAT-212 for [125I]eotaxin; mean of 4 estimates
[2] = molecular target: Human eotaxin (human) (UniProt P51671); test: cell-based or functional assay
[3] = molecular target: Human eotaxin (human) (UniProt P51671); test: not stated (summary sentence in the introduction)
[4] = molecular target: Human eotaxin (human) (UniProt P51671); test: saturation binding of [125I]eotaxin to coated CAT-212 on a Flash Plate, Scatchard plot

IC50 [1]: 42.5 pM
IC50, inhibition of eotaxin-induced Ca2+ flux in CCR3 cells (FLIPR, area under the curve) [2]: 5000 pM
IC50, inhibition of eotaxin-mediated chemotaxis of CCR3-transfected L1.2 cells [2]: 650 pM
improvement in chemotaxis neutralisation potency over scFv 3G3 [2]: 1000 fold
Kd [3]: 15 pM
Kd [4]: 146 pM
B1: CAT-212 (scFv, part only; not given: scFv linker and myc/His tag, V domains shown, not shown: another chain or arm of the molecule; small tags and cut ends)
VH: QVQLVQSGGGVVQPGRSLRLSCAASGFTFSSYGMHWVRQAPGKGLEWVAVISYDGSIKHYADSVKGRFTISRDNSKNTLYLQMNSLRTDDTAVYYCAGDTDYGDIDPWGQGTMVTVSS
VL: DIQMTQSPSSVSASVGDRVTITCRASQDISSWLAWYQQKPGKAPKLLIYAASSLQSGVPSRFSGSGSGTDFTLTISSLQPEDFATYYCQQASSFPSITFGQGTRLEIK
